Fewer inactive variants are shown than the library holds.
B1: TPR 5TU (parent)
chain: GGAUCUUCUCGAUCUAACAAAAAAGACAAAUCUGCCACAAAGCUUGAGAGCAUCUUCGGAUGCAGAGGCGGCAGCCUUCGGUGGCGCGAUAGCGCCAACGUUCUCAACUAUGACACGCAAAACGCGUGCUCCGUUGAAUGGAGUUUAUCAUG

Variants of: B1
Test: polymerase ribozyme fitness, log enrichment relative to wild type (log ratio); higher = more active; in vitro selection for triplet polymerase activity
Procedure, shortened: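 A heterodimeric triplet polymerase ribozyme had each of its subunits mutagenized by PCR into a library, which was transcribed. One round of in vitro selection, done in triplicate, annealed each library with a biotinylated primer, its partner subunit and triplets, then incubated it frozen at −7 °C before gel excision of extended constructs, streptavidin-bead capture and RT-PCR. Fitness is the logarithm of genotype enrichment relative to wild-type enrichment, based on Illumina sequencing of inputs and outputs and inverse-variance-weighted replicate averages. A base-2 logarithm is used, and genotypes were kept only with ≥10 input reads and ≥1 read per output.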

Variant	polymerase ribozyme fitness (log ratio)
A12U A37C U45A U55A C85U G92A	≤ -4.2
A12G A19C A29U C129G	≤ -4.2
U13C A20U G48C C96G	-2.62
A12U G58C C76U U102G A138C	≤ -4.2
A12G A23U U56A C93G	≤ -4.2
A12U A29G A37U A47U U55A G84U A89G A120C G140C U144G	≤ -4.2
A12G A21C C32U U55G	-1.77
U13A A21U U55C G62C U82A G100C C105G G112U C131U	≤ -4.2
C14A U55G U56A G92U A150G	-4.11
A12U G84U G100U	≤ -4.2
U13G G84U U135A G136A	-2.14
C14A C72U	-1.72
U13A C85U	-1.16
U13G A49U C57U C87G C118U U139C U151A	≤ -4.2
A12G C38U C57G G62A C93A	-2.77
C14G C54U A64G A66C U82G A97G G140U	≤ -4.2
A12C G59A C75U C114U A150C	≤ -4.2
C14G G50A	-3.35
A12U A49U A52C G67A C72A C85A G86C A119U	≤ -4.2
U13A A37G C93U	-3.74
A12U C105G C118A	-2.62
A12C C105G	-2.6
A12U A22G U45A A49U A115G	≤ -4.2
U13C A52G G84A	-1.1

Variant	polymerase ribozyme fitness (log ratio)
C14G C57G C87G	≤ -4.2
C14G C96G	-2.81
C14G C54G G71A C99A G100A	≤ -4.2
U13G C14U A60C G88U A122U U134A	≤ -4.2
U13C G88U	-3.96
C14A A20G C79A G94C G141A	≤ -4.2
A12G A24G A37C C87G A120G U139G	-4.13
C14G A26G U44A C99G C103U	≤ -4.2
C14A A16U G86A C87G	-3.84
C14A U55A G68A A107U	≤ -4.2
A12G A41G	0.519
U13A A41C C43G A60C A138G A150G	≤ -4.2
C14G A23U A52C G84A C118U	≤ -4.2
A12U U56A C93U	-1.4
A12C G58A A66C G88U A110U	≤ -4.2
C14G A19U C116A	-2.21
U13G U82A C96U U130A	-3.83
A12U G34U G50A A52G G67C C85U C96U G141A U148G	≤ -4.2
C14A A49C G59C G62A A91U G100A C114U A137G U146C	≤ -4.2
U13G A23U C35A C93U C99U U127G	≤ -4.2
A12C C85U	-1.44
U13C U55A C85A C125U	-1.98
C14G G34A C85A	≤ -4.2
A12U C96A	-0.787

Variant	polymerase ribozyme fitness (log ratio)
A12G U56A	-0.197
A12G C35A G74A U101A A147U	≤ -4.2
A12U G81A C85A C99U	-1.62
A12G G143U	-2.62
C14G C54A C85G U127A	≤ -4.2
U13A C85U G136U	-3.3
C14G A30C C35A G48A C87G U102A	≤ -4.2
C14G A47C A52G A115C A119G	≤ -4.2
A12U A21C G80C G81A C93G G140U	≤ -4.2
C14A A21C A64G C75U C76G C85U C105U A120U	≤ -4.2
U13C A121U A142C	-2.44
U13G A106C	-1.83
U13G G59U C85U G94U G112A C116A	≤ -4.2
U13G C18G C27U A40U A64U	≤ -4.2
C14G G50A C54U C93A U139A	≤ -4.2
A12C U56A G59C C96A U101C	-0.609
C14A A17U A115G	-3.2
U13G C51U U56A G86U A115U	≤ -4.2
C14G A52C C85A	≤ -4.2
C14G A97C A110U A120G U134A	≤ -4.2
A12G A16G A23U C38U C87U G141C G152A	≤ -4.2
A12C U15C C35U G58A U90C G126U	≤ -4.2
U13C C27A C43A G86U	≤ -4.2
C14G A47C A60U G65A	≤ -4.2

Variant	polymerase ribozyme fitness (log ratio)
U13G U15A C36A A40C U56A G58A A107U G124U C131A	≤ -4.2
U13G C14G C18U A22C C57U G59A C75A C93A G143U U146A G152U	≤ -4.2
A12U C93G	-3.28
A12U G25U A52C U56A G67A A91G C103G	≤ -4.2
A12U G117C U134C	-0.516
A12U C14G G25C C85G G94A U104C A106U C116G U139C	≤ -4.2
U13A A24U C96G	-1.33
C14G A22G G94A C118G A150C	≤ -4.2
U13G C14A C72U G83A G117U	-2.88
A12U A47U C95U A115G	-2.31
A12U A19U A37U U55A	-3.16
A12G A17C G50C C63G C96U	-0.474
A12U A17C A24G C79U C118U	≤ -4.2
A12U G58C C95A	-1.44
A12C U145C	0.192
A12U A19C U82C C129G	-3.41
A12U U53A	-1.75
C14A A39U C85G G140A	≤ -4.2
C14A A21G U53A C85U	-3.58
A12G C38U G86A C87U A121C G136A	≤ -4.2
A12C G94A G152C	-3.98
C14G A29U	-3.98
A12G G59A A66C C79A C108U C116A	≤ -4.2
U13G A16U U33G G50C G81C G143A	≤ -4.2

Variant	polymerase ribozyme fitness (log ratio)
U13A C93U	-0.77
A12G A16U G42C C75U C129U	≤ -4.2
U13G A23C C32U G59U C85G C105G A106U C116G U134A	≤ -4.2
A12C C87U	-0.61
A12G C54G G80A U144A	-3.53
A12G A37C G86A C95A	≤ -4.2
C14G A52C C69U U77G G92A	≤ -4.2
U13G C14G A30C G80A A137U	≤ -4.2
C14A A22G G86U G140C	≤ -4.2
U13G A52G G59C C95A C118U	-2.5
C14G A28U A29C C32G U44G C63U G83A G86C C105U C108U G143U	≤ -4.2
C14A G58C C93U	-2.75
U13C G62C C99A U148G	≤ -4.2
U13G A19U A22C G46C G81C C95U G140C	≤ -4.2
A12G C54U C57A C75U	-0.0208
C14G A26G C27A U44A U45C C72A U151G	≤ -4.2
U13G C27U C32G U56G C93U	≤ -4.2
A12G U15G A26G C93A A115G	≤ -4.2
A12C U53A C87U	-2
C14G C69A C96U C118U	≤ -4.2
C14G A16C C51U G94U C125U	-3.93
A12G C18G A21U G68C G83A A97U C125U G140U G143U	≤ -4.2
A12G U33A A64C G92A G124U	-4
C14A G25U U82G G94U	≤ -4.2

Variant	polymerase ribozyme fitness (log ratio)
A12G A20G A26U A41C C54U U77C U102C U146G	≤ -4.2
A12U A24U G81U G84A	0.337
A12G A52C U55A C118G A120U	-1.84
U13G A40C A73G C85U	-2.84
C14G A22U A39U	≤ -4.2
A12U U13G A52U C54A	≤ -4.2
C14A C54G G62A G86U U101G G141U	≤ -4.2
C14G A23U A41U U78C G80C G81U C96U A110U G143U	≤ -4.2
C14A U55G C63G C93U C118U	≤ -4.2
U13A A23U U31A A37C G84U C125A G140A G152U	≤ -4.2
U13C G25A A29C C36G C118A	-4.18
C14A A39U A52U C87A C95U C96U G100U C125A	≤ -4.2
A12U C85U C99G	-1.04
U13G A16U G42C G84A	≤ -4.2
A12G C14U C79G C132A A142U	≤ -4.2
C14G A19G C43U G86A U104G C108G A122C	≤ -4.2
A12G U44A A52G C85A C118U	≤ -4.2
A12U A22G C35U G58A A91C A98G C116G	-4.07
C14G C36U C85U G136U A138G	≤ -4.2
A12G U13C C14A A41C A110U A119G G133A G140U U145G	≤ -4.2
A12U A28G U55A C63U C96G G100A	≤ -4.2
A12C U53A U56A	-2.64
U13G G58C A122C	-1.1
U13G A49C G152U	≤ -4.2

Variant	polymerase ribozyme fitness (log ratio)
C14A G141U	-0.0158
C14A G141C	-1.87
C14A A115G	-2.5
U13A A41G C85A A106U	-4.16
U13A C72U U82C	-1.38
C14A A26U U77G G84U A115C A147G U148G	≤ -4.2
U13G C18G A22G C54A G100C C116G A120U A147C	≤ -4.2
U13G A20C C27U U61A C99A	≤ -4.2
U13A C54A G84U G88U	≤ -4.2
U13A U61A	-1.8
A12G G84C	-1.21
U13G G59A	-1.2
C14G A89U	-2.66
U13C C96A C99U	-1.75
U13G C32A C93A U127G	≤ -4.2
U13C U44A C87A G126U	≤ -4.2
C14A A19U U33G C69A C75G C96A A97G A106C G140C	≤ -4.2
C14A G48C U56A C96A	-3.68
U13C A16G A19C U56A G136U U145G	-3.34
U13G U56A A91G	-3.81
U13A G58U C96A A120U U145C	-1.29
C14A A41C C85A C132U U145A	≤ -4.2
A12G A23G U31A C35U U56A	-3.98
